{
  "source": "patent US20260242735A1",
  "biological_target": "human CD33 R287A (human) (UniProt P20138)",
  "sequence (P20138 18-364 R287A limits assumed)": "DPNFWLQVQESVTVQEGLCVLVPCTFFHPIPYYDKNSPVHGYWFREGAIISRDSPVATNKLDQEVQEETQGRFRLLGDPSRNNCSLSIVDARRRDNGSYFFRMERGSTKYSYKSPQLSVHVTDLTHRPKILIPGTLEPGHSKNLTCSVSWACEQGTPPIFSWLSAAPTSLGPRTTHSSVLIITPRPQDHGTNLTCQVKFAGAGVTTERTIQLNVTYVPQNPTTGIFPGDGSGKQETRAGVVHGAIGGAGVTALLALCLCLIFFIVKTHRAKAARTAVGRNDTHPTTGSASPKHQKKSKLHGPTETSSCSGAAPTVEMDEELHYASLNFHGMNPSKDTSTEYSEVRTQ",
  "experiment": "flow cytometry, HEK293-T, alanine scan",
  "data": [
    {"substance": "Refmab #7 (WM53) (antibody)", "values": [
      {"measurement": "Mean % WT Binding", "result": 91.1, "unit": "% WT binding"}
    ]}
  ]
}
